# According to patent US20260049148:
# B1: human recombinant MMP2 (R&D Systems, catalog No: 902-MP) (protein)
# chain: YNFFPRKPKWDKNQITYRIIGYTPDLDPETVDDAFARAFQVWSDVTPLRFSRIHDGEADIMINFGRWEHGDGYPFDGKDGLLAHAFAPGTGVGGDSHFDDDELWTLGEGQVVRVKYGNADGEYCKFPFLFNGKEYNSCTDTGRSDGFLWCSTTYNFEKDGKYGFCPHEALFTMGGNAEGQPCKFPFRFQGTSYDSCTTEGRTDGYRWCGTTEDYDRDKKYGFCPETAMSTVGGNSEGAPCVFPFTFLGNKYESCTSAGRSDGKMWCATTANYDDDRKWGFCPDQGYSLFLVAAHEFGHAMGLEHSQDPGALMAPIYTYTKNFRLSQDDIKGIQELYGASPDIDLGTGPTPTLGPVTPEICKQDIVFDGIAQIRGEIFFFKDRFIWRTVTPRDKPMGPLLVATFWPELPEKIDAVYEAPQEEKAVFFAGNEYWIYSASTLERGYPKPLTSLGLPPDVQRVDAAFNWSKNKKTYIFAGDKFWRYNEVKKKMDPGFPKLIADAWNAIPDNLDAVVDLQGGGHSYFFKGAYYLKLENQSLKSVKFGSIKSDWLGC
# Target: internally quenched peptide probe (MCA)-Gly-Ser-Ala-Ile-Ala-Leu-Tyr-Gly-Gly-Ser-Lys (DNP)-D-Arg with CM AIALY (SEQ ID NO: 5)
protein,measurement,value
B1,Probe Cleavage (kcat/KM),39000 M⁻¹ s⁻¹
same,Probe Cleavage (pM/s),135 pM/s
